Data from JP2016528193A (dated 2016).

Columns and labels:
ヒトPCSK9(野生型) [1] = target: ヒトPCSK9(野生型) (human); experiment: KinExA solution equilibrium, PCSK9-coated beads
ヒトPCSK9(野生型) [2] = target: ヒトPCSK9(野生型) (human); experiment: Biacore at pH 6.0 (HBS-P with 0.01 % BSA), fitted from competition curves, n=1

Row | Kd (ヒトPCSK9(野生型) [1]) | Kd (ヒトPCSK9(野生型) [2]) | Binder
1 | 0.015 nM | 0.029 nM | 16F12 (antibody, V domains shown) VH: QVHLVESGGGVVQPGRSLRLSCAASGFTFNSFGMHWVRQAPGKGLEWVALIWSDGSDEYYADSVKGRFTISRDNSKNTLYLQMNSLRAEDTAVYYCARAIAALYYYYGMDVWGQGTTVTVSS VL: QSVLTQPPSVSAAPGQKVTISCSGSSSNIGNNFVSWYQQLPGTAPKLLIYDYNKRPSGIPDRFSGSKSGTSATLGITGLQTGDEADYYCGTWDSSLSAYVFGTGTRVTVLQ
2 | 0.003 nM | 0.0125 nM | 31H4 (antibody, V domains shown) VH: EVQLVESGGGLVKPGGSLRLSCAASGFTFSSYSMNWVRQAPGKGLEWVSSISSSSSYISYADSVKGRFTISRDNAKNSLYLQMNSLRAEDTAVYFCARDYDFWSAYYDAFDVWGQGTMVTVSS VL: QSVLTQPPSVSGAPGQRVTISCTGSSSNIGAGYDVHWYQQLPGTAPKLLISGNSNRPSGVPDRFSGSKSGTSASLAITGLQAEDEADYYCQSYDSSLSGSVFGGGTKLTVLQ
